# According to patent US20100330076A1:
# Key:
# FcγRI (human) = FcγRI (human) (UniProt P12314); assay: BIACore SPR
# FcγRIa (human) = FcγRIa (human) (UniProt P12314); assay: BIACore SPR
# Chain of FcγRIa (human) (P12314 16-292): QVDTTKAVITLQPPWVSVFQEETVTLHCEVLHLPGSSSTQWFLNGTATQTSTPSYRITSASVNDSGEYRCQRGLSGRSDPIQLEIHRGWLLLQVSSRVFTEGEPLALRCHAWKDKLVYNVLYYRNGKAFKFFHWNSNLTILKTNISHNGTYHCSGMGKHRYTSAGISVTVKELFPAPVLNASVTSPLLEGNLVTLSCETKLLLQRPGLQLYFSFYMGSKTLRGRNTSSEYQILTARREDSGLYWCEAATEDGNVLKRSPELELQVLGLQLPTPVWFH
# Chain of FcγRI (human) (P12314 16-292): as above
Kd (FcγRI (human)),Kd (FcγRIa (human)),Substance
382 nM,–,Aglycosylated wild type Trastuzumab
–,382 nM,Aglycosylated wild type trastuzumab
